T1: EsCas13d, nuclease-dead (Eubacterium siraeum, UniProt B0MS50, R295A;H300A;R849A;H854A)
T1 sequence: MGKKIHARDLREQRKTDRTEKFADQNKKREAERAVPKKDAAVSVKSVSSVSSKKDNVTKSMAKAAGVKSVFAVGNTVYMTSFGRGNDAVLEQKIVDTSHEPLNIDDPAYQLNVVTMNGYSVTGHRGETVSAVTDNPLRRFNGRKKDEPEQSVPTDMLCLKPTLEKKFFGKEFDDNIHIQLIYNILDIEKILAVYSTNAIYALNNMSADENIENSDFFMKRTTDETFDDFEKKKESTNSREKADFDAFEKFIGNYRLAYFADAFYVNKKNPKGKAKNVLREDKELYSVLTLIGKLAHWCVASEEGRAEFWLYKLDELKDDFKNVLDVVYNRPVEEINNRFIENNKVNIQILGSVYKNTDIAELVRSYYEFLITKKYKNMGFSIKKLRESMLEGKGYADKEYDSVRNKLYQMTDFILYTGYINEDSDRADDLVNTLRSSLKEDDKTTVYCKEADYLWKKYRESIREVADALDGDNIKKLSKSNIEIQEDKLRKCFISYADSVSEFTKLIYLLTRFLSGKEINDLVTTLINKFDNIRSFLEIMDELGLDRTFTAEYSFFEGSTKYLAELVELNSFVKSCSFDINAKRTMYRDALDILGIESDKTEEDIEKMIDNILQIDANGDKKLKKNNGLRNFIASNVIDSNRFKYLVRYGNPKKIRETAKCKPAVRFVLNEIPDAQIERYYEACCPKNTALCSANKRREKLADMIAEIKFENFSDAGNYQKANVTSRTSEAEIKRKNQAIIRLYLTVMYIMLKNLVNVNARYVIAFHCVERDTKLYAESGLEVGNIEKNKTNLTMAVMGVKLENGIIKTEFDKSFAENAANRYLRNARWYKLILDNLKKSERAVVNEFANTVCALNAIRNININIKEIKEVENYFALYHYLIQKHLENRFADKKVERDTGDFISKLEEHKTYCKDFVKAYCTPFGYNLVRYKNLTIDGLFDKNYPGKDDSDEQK


Molecular target: T1, EsCas13d, nuclease-dead
Experiment: crRNA (strand 1, pre-loaded); Mg2+; 40 mM Tris-HCl pH 7.5, 150 mM NaCl, 6 mM MgCl2, 1 mM DTT, 0.1% Tween-20, 0.2 mg/ml BSA; 25 C; 10 min per concentration, then washed
Details: tags: His6-TwinStrep-SUMO cleaved; N-terminal SNAP kept (SNAP-Surface 488); label: 3' end held by stalled T7 RNA polymerase

Row | Binder | Kd
1 | target 1 A18C,C21U (mixed) RNA 1: CACCCGUGCAAAAAUGCAGGGGUCUAAAACUGAGCGGAUAACCUCUCUAUGG RNA 2: GGGAAUGGAUCCACAUCUACGAAUUCGUACUAUCGAGAGGUUAUCCGCUCACCGAGAUCGGAAGAGCACACGU | 0.00748 ± 0.00031 µM
2 | target 1 del4,del13 (mixed) RNA 1: CACCCGUGCAAAAAUGCAGGGGUCUAAAACUGAGCGGAUAACCUCUCUAUGG RNA 2: GGGAAUGGAUCCACAUCUACGAAUUCGUACCAUAGAGAGUUAUCCGUCACCGAGAUCGGAAGAGCACACGU | 0.0165 ± 0.0014 µM
3 | target 1 insC 3' of 19,insU 3' of 1 (mixed) RNA 1: CACCCGUGCAAAAAUGCAGGGGUCUAAAACUGAGCGGAUAACCUCUCUAUGG RNA 2: GGGAAUGGAUCCACAUCUACGAAUUCGUACCAUCAGAGAGGUUAUCCGCUCAUCCGAGAUCGGAAGAGCACACGU | 0.039 ± 0.008 µM
4 | target 1 insC 3' of 19,insG 3' of 1 (mixed) RNA 1: CACCCGUGCAAAAAUGCAGGGGUCUAAAACUGAGCGGAUAACCUCUCUAUGG RNA 2: GGGAAUGGAUCCACAUCUACGAAUUCGUACCAUCAGAGAGGUUAUCCGCUCAGCCGAGAUCGGAAGAGCACACGU | 0.031 ± 0.004 µM
5 | target 1 U19G,C22A (mixed) RNA 1: CACCCGUGCAAAAAUGCAGGGGUCUAAAACUGAGCGGAUAACCUCUCUAUGG RNA 2: GGGAAUGGAUCCACAUCUACGAAUUCGUAACAGAGAGAGGUUAUCCGCUCACCGAGAUCGGAAGAGCACACGU | 0.054 ± 0.009 µM
6 | target 1 C7G,A9G (mixed) RNA 1: CACCCGUGCAAAAAUGCAGGGGUCUAAAACUGAGCGGAUAACCUCUCUAUGG RNA 2: GGGAAUGGAUCCACAUCUACGAAUUCGUACCAUAGAGAGGUUGUGCGCUCACCGAGAUCGGAAGAGCACACGU | 0.0145 ± 0.0008 µM
7 | target 1 insA 3' of 13,insA 3' of 6 (mixed) RNA 1: CACCCGUGCAAAAAUGCAGGGGUCUAAAACUGAGCGGAUAACCUCUCUAUGG RNA 2: GGGAAUGGAUCCACAUCUACGAAUUCGUACCAUAGAGAGAGUUAUCCAGCUCACCGAGAUCGGAAGAGCACACGU | 0.00418 ± 0.00024 µM
8 | target 1 G5C,C6A (mixed) RNA 1: CACCCGUGCAAAAAUGCAGGGGUCUAAAACUGAGCGGAUAACCUCUCUAUGG RNA 2: GGGAAUGGAUCCACAUCUACGAAUUCGUACCAUAGAGAGGUUAUCACCUCACCGAGAUCGGAAGAGCACACGU | 0.0113 ± 0.0008 µM
9 | target 1 insA 3' of 8,insA 3' of 4 (mixed) RNA 1: CACCCGUGCAAAAAUGCAGGGGUCUAAAACUGAGCGGAUAACCUCUCUAUGG RNA 2: GGGAAUGGAUCCACAUCUACGAAUUCGUACCAUAGAGAGGUUAUACCGCAUCACCGAGAUCGGAAGAGCACACGU | 0.0084 ± 0.0005 µM
10 | target 1 G5C,G13A (mixed) RNA 1: CACCCGUGCAAAAAUGCAGGGGUCUAAAACUGAGCGGAUAACCUCUCUAUGG RNA 2: GGGAAUGGAUCCACAUCUACGAAUUCGUACCAUAGAGAAGUUAUCCCCUCACCGAGAUCGGAAGAGCACACGU | 0.0058 ± 0.0004 µM
11 | target 1 U10C,C22U (mixed) RNA 1: CACCCGUGCAAAAAUGCAGGGGUCUAAAACUGAGCGGAUAACCUCUCUAUGG RNA 2: GGGAAUGGAUCCACAUCUACGAAUUCGUAUCAUAGAGAGGUCAUCCGCUCACCGAGAUCGGAAGAGCACACGU | 0.056 ± 0.008 µM
12 | target 1 insC 3' of 11,insA 3' of 4 (mixed) RNA 1: CACCCGUGCAAAAAUGCAGGGGUCUAAAACUGAGCGGAUAACCUCUCUAUGG RNA 2: GGGAAUGGAUCCACAUCUACGAAUUCGUACCAUAGAGAGGUCUAUCCGCAUCACCGAGAUCGGAAGAGCACACGU | 0.0211 ± 0.002 µM
13 | target 1 C4A,U19C (mixed) RNA 1: CACCCGUGCAAAAAUGCAGGGGUCUAAAACUGAGCGGAUAACCUCUCUAUGG RNA 2: GGGAAUGGAUCCACAUCUACGAAUUCGUACCACAGAGAGGUUAUCCGAUCACCGAGAUCGGAAGAGCACACGU | ~0.036 µM
14 | target 1 C2A,U10C (mixed) RNA 1: CACCCGUGCAAAAAUGCAGGGGUCUAAAACUGAGCGGAUAACCUCUCUAUGG RNA 2: GGGAAUGGAUCCACAUCUACGAAUUCGUACCAUAGAGAGGUCAUCCGCUAACCGAGAUCGGAAGAGCACACGU | 0.0178 ± 0.0007 µM
15 | target 1 C2G,U10C (mixed) RNA 1: CACCCGUGCAAAAAUGCAGGGGUCUAAAACUGAGCGGAUAACCUCUCUAUGG RNA 2: GGGAAUGGAUCCACAUCUACGAAUUCGUACCAUAGAGAGGUCAUCCGCUGACCGAGAUCGGAAGAGCACACGU | 0.00545 ± 0.00029 µM
16 | target 1 insC 3' of 19,insA 3' of 2 (mixed) RNA 1: CACCCGUGCAAAAAUGCAGGGGUCUAAAACUGAGCGGAUAACCUCUCUAUGG RNA 2: GGGAAUGGAUCCACAUCUACGAAUUCGUACCAUCAGAGAGGUUAUCCGCUCAACCGAGAUCGGAAGAGCACACGU | 0.0338 ± 0.0031 µM
17 | target 1 C6U,U8C (mixed) RNA 1: CACCCGUGCAAAAAUGCAGGGGUCUAAAACUGAGCGGAUAACCUCUCUAUGG RNA 2: GGGAAUGGAUCCACAUCUACGAAUUCGUACCAUAGAGAGGUUACCUGCUCACCGAGAUCGGAAGAGCACACGU | 0.0156 ± 0.0005 µM
18 | target 1 insU 3' of 6,insU 3' of 2 (mixed) RNA 1: CACCCGUGCAAAAAUGCAGGGGUCUAAAACUGAGCGGAUAACCUCUCUAUGG RNA 2: GGGAAUGGAUCCACAUCUACGAAUUCGUACCAUAGAGAGGUUAUCCUGCUCUACCGAGAUCGGAAGAGCACACGU | 0.017 ± 0.0016 µM
19 | target 1 insA 3' of 19,insA 3' of 12 (mixed) RNA 1: CACCCGUGCAAAAAUGCAGGGGUCUAAAACUGAGCGGAUAACCUCUCUAUGG RNA 2: GGGAAUGGAUCCACAUCUACGAAUUCGUACCAUAAGAGAGGAUUAUCCGCUCACCGAGAUCGGAAGAGCACACGU | 0.054 ± 0.005 µM
20 | target 1 U3C,C21U (mixed) RNA 1: CACCCGUGCAAAAAUGCAGGGGUCUAAAACUGAGCGGAUAACCUCUCUAUGG RNA 2: GGGAAUGGAUCCACAUCUACGAAUUCGUACUAUAGAGAGGUUAUCCGCCCACCGAGAUCGGAAGAGCACACGU | 0.027 ± 0.007 µM
21 | target 1 complement block 8-11 (mixed) RNA 1: CACCCGUGCAAAAAUGCAGGGGUCUAAAACUGAGCGGAUAACCUCUCUAUGG RNA 2: GGGAAUGGAUCCACAUCUACGAAUUCGUACCAUAGAGAGGAAUACCGCUCACCGAGAUCGGAAGAGCACACGU | 0.0182 ± 0.0008 µM
22 | target 1 A9U,A20U (mixed) RNA 1: CACCCGUGCAAAAAUGCAGGGGUCUAAAACUGAGCGGAUAACCUCUCUAUGG RNA 2: GGGAAUGGAUCCACAUCUACGAAUUCGUACCUUAGAGAGGUUUUCCGCUCACCGAGAUCGGAAGAGCACACGU | 0.043 ± 0.004 µM
23 | target 1 insC 3' of 19,insC 3' of 1 (mixed) RNA 1: CACCCGUGCAAAAAUGCAGGGGUCUAAAACUGAGCGGAUAACCUCUCUAUGG RNA 2: GGGAAUGGAUCCACAUCUACGAAUUCGUACCAUCAGAGAGGUUAUCCGCUCACCCGAGAUCGGAAGAGCACACGU | 0.0264 ± 0.003 µM
24 | target 1 G5C,C7U (mixed) RNA 1: CACCCGUGCAAAAAUGCAGGGGUCUAAAACUGAGCGGAUAACCUCUCUAUGG RNA 2: GGGAAUGGAUCCACAUCUACGAAUUCGUACCAUAGAGAGGUUAUUCCCUCACCGAGAUCGGAAGAGCACACGU | 0.033 ± 0.006 µM
25 | target 1 insG 3' of 7 (mixed) RNA 1: CACCCGUGCAAAAAUGCAGGGGUCUAAAACUGAGCGGAUAACCUCUCUAUGG RNA 2: GGGAAUGGAUCCACAUCUACGAAUUCGUACCAUAGAGAGGUUAUCGCGCUCACCGAGAUCGGAAGAGCACACGU | 0.0055 ± 0.00016 µM
26 | target 1 C2U,C6G (mixed) RNA 1: CACCCGUGCAAAAAUGCAGGGGUCUAAAACUGAGCGGAUAACCUCUCUAUGG RNA 2: GGGAAUGGAUCCACAUCUACGAAUUCGUACCAUAGAGAGGUUAUCGGCUUACCGAGAUCGGAAGAGCACACGU | 0.0079 ± 0.0003 µM
27 | target 1 C4G,C21U (mixed) RNA 1: CACCCGUGCAAAAAUGCAGGGGUCUAAAACUGAGCGGAUAACCUCUCUAUGG RNA 2: GGGAAUGGAUCCACAUCUACGAAUUCGUACUAUAGAGAGGUUAUCCGGUCACCGAGAUCGGAAGAGCACACGU | 0.0035 ± 0.0005 µM
28 | target 1 A9G,A16U (mixed) RNA 1: CACCCGUGCAAAAAUGCAGGGGUCUAAAACUGAGCGGAUAACCUCUCUAUGG RNA 2: GGGAAUGGAUCCACAUCUACGAAUUCGUACCAUAGUGAGGUUGUCCGCUCACCGAGAUCGGAAGAGCACACGU | 0.082 ± 0.027 µM

From article PMC10786891, “Massively parallel profiling of RNA-targeting CRISPR-Cas13d”
